# Reference: publication PMC8113721, “The lysosomal protein ABCD4 can transport vitamin B12 across liposomal membranes in vitro” (The Journal of Biological Chemistry, 2021)
# Positions count from the first letter of the chain named. Numbers in names are those of the source.
# B1: glutathione-S-transferase (GST)–tagged LMBD1 (natural protein, human, UniProt Q9NUN5 1-540, looked up)
# chain: MATSGAASAELVIGWCIFGLLLLAILAFCWIYVRKYQSRRESEVVSTITAIFSLAIALITSALLPVDIFLVSYMKNQNGTFKDWANANVSRQIEDTVLYGYYTLYSVILFCVFFWIPFVYFYYEEKDDDDTSKCTQIKTALKYTLGFVVICALLLLVGAFVPLNVPNNKNSTEWEKVKSLFEELGSSHGLAALSFSISSLTLIGMLAAITYTAYGMSALPLNLIKGTRSAAYERLENTEDIEEVEQHIQTIKSKSKDGRPLPARDKRALKQFEERLRTLKKRERHLEFIENSWWTKFCGALRPLKIVWGIFFILVALLFVISLFLSNLDKALHSAGIDSGFIIFGANLSNPLNMLLPLLQTVFPLDYILITIIIMYFIFTSMAGIRNIGIWFFWIRLYKIRRGRTRPQALLFLCMILLLIVLHTSYMIYSLAPQYVMYGSQNYLIETNITSDNHKGNSTLSVPKRCDADAPEDQCTVTRTYLFLHKFWFFSAAYYFGNWAFLGVFLIGLIVSCCKGKKSVIEGVDEDSDISDDEPSVYSA
# notes: LMBD1 (lysosomal membrane protein encoded by LMBRD1), human; GST itself can dimerise; the dimer seen by cross-linking is of the GST fusion; also called LMBD1–GST; source: also reconstituted in liposomes with His-ABCD4
# B2: His-tagged human ABCD4 (natural protein)
# chain: AVAGPAPGAGARPRLDLQFLQRFLQILKVLFPSWSSQNALMFLTLLCLTLLEQFVIYQVGLIPSQYYGVLGNKDLEGFKTLTFLAVMLIVLNSTLKSFDQFTCNLLYVSWRKDLTEHLHRLYFRGRAYYTLNVLRDDIDNPDQRISQDVERFCRQLSSMASKLIISPFTLVYYTYQCFQSTGWLGPVSIFGYFILGTVVNKTLMGPIVMKLVHQEKLEGDFRFKHMQIRVNAEPAAFYRAGHVEHMRTDRRLQRLLQTQRELMSKELWLYIGINTFDYLGSILSYVVIAIPIFSGVYGDLSPAELSTLVSKNAFVCIYLISCFTQLIDLSTTLSDVAGYTHRIGQLRETLLDMSLKSQDCEILGESEWGLDTPPGWPAAEPADTAFLLERVSISAPSSDKPLIKDLSLKISEGQSLLITGNTGTGKTSLLRVLGGLWTSTRGSVQMLTDFGPHGVLFLPQKPFFTDGTLREQVIYPLKEVYPDSGSADDERILRFLELAGLSNLVARTEGLDQQVDWNWYDVLSPGEMQRLSFARLFYLQPKYAVLDEATSALTEEVESELYRIGQQLGMTFISVGHRQSLEKFHSLVLKLCGGGRWELMRIKVE
# notes: ABCD4 (ABC transporter subfamily D member 4), human; also called His-ABCD4; wildtype ABCD4; source: also reconstituted in liposomes
# B3: His-ABCD4 (N141K) (natural protein, human)
# chain: B2 chain with N140K
# notes: ABCD4, human, with the clinical missense mutation N141K; N141K is a clinical mutation reported in cobalamin deficiency; source: K. phaffii, purified and reconstituted in liposomes using the same procedure as used for His-ABCD4
# B4: His-ABCD4 (Y319C) (natural protein, human)
# chain: B2 chain with Y318C
# notes: ABCD4, human, with the clinical missense mutation Y319C; Y319C is a clinical mutation reported in cobalamin deficiency; source: K. phaffii, purified and reconstituted in liposomes using the same procedure as used for His-ABCD4
# Tests used:
# [1] = biological target: the molecule itself; experiment: cross-linking; purified His-ABCD4 and LMBD1–GST mixed; SDA and m-maleimidobenzoyl-N-hydroxysuccinimide ester (2 mM each), UV irradiation; immunoblot
# His-tagged human ABCD4 = biological target: B2; experiment: as above; conditions: both partners purified
# [2] = biological target: the molecule itself; experiment: SEC; purified His-ABCD4 solubilized in β-DDM; size exclusion chromatography, polydisperse profile with a ∼360 kDa major peak
# [3] = biological target: the molecule itself; experiment: not stated; mutant His-ABCD4 reconstituted in liposomes (Fig. S11B); the text does not name the method
binder,measurement,setting,value
B1,stoichiometry N,[1],2
same,stoichiometry N,His-tagged human ABCD4,1
B2,stoichiometry N,[2],2
B3,stoichiometry N,[3],2
B4,stoichiometry N,[3],2
